The target of test [1] is T1, human OX40 expressed on cells (human, UniProt P43489 29-277).
T1 construct: whole, on cells; also called OX40 expression HEK293 cells
T1 sequence (looked up): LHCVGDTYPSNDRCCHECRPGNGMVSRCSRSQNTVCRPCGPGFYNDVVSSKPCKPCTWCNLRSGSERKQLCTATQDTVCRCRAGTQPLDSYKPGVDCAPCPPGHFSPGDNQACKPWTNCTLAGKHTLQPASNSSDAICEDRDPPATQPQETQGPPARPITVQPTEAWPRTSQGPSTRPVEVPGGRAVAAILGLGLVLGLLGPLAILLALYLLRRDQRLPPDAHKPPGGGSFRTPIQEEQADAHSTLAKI
Kind of test: phage display selection and cell-based ELISA screening. The protocol:
(§1) For the generation of therapeutic antibodies against PD-L1 or OX40, selections with the OmniMab phagemid library were carried out. The phagemid library is generated by AP Biosciences Inc. (APBio Inc.) from a collection of over hundred health donors B cells. Phages for the 1st round of pannings were prepared by Hyperphage (M13K07ΔρIII, Progen, Heidelberg, Germany). Solid phase panning and cell panning against PD-L1 or OX40 were applied for PD-L1 or OX40 specific binder selection and isolation from OmniMab library. […] Bound phages were detected by HRP conjugated anti-M13 antibody (Roche) and TMB substrate was used for signal development. The OD₄₅₀ readings were recorded. The positive binders were isolated and sent for sequencing to confirm the sequence and diversity of heavy chain and light chain.

Test [2] has as its target T2, human PD-L1 expressed on cells (human, UniProt Q9NZQ7 19-290).
T2 construct: whole, on cells; also called PD-L1 expression HEK293 cells
Kind of test: flow cytometry on stable PD-L1 expression 293 cells, IFN-γ stimulated A549 or WiDr. The text has this:
The bound antibody fusion proteins were detected with Alexa-488 conjugated goat anti-human IgG (H+L) followed by FACS analysis. Isotype antibody was used as negative control for the test.
On the technique in general: Flow cytometry measures light scatter and fluorescence of single cells or particles in a stream.

In another test the target is T3, human PD-L1 (human, UniProt Q9NZQ7 19-238, limits assumed).
T3 construct: also called recombinant PD-L1
Kind of test: direct ELISA.

In test [3] the target is T4, human PD-L1 IgG1 Fc chimera (human, UniProt Q9NZQ7 19-238, limits assumed).
T4 construct: Made by APBio; also called PD-L1-Fc; recombinant human PD-L1-Fc
Kind of test: phage display selection and direct ELISA screening. The protocol: as §1
On the technique in general: An ELISA detects its analyte on a solid surface through an enzyme-linked reagent.

The values below come from patent publication US20250346678A1 (AP BIOSCIENCES, published 2025).

T3 sequence (Q9NZQ7 19-238 limits assumed): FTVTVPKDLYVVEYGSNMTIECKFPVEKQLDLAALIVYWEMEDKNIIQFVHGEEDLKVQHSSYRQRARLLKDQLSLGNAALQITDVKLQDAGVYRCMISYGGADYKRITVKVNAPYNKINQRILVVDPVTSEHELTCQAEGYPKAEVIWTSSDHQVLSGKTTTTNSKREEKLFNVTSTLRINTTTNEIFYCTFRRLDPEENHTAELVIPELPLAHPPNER
T4 sequence (Q9NZQ7 19-238 limits assumed, change not shown): as the sequence (Q9NZQ7 19-238 limits assumed) above
T2 sequence (Q9NZQ7 19-290): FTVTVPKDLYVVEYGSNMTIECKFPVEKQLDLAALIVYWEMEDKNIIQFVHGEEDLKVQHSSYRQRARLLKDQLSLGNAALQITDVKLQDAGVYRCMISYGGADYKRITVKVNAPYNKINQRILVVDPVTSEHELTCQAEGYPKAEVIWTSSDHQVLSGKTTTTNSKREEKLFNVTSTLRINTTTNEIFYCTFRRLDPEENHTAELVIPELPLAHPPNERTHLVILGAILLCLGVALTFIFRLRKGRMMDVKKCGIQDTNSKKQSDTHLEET

B1: OM-OX40-B17 (Fab, V domains shown)
VH: EVQLVESGGVVVQPGGSLRLSCAASGFTFDDYTMHWVRQAPGKGLEWVSLISWDGGSTYYADSVKGRFTISRDNSKNSLYLQMNSLRTEDTALYYCASIYDPPPGSRSALDAFDIWGQGTMVTVSS
VL: SYVLTQPPSVSVTPGKTARIACGGNNLESKIVSWYQQKPGQAPVLVIFYDTDRPSGISERFSGSNSGNTATLTISRVEAGDEADYYCQVWDSNSDHVIFGGGTKLTVLG
notes: Fab from the phage library; variable regions identical to those of OX40 clone B17
Consider B1, for which, in test [1], the binding result is listed as “binds”.

B2: OM-OX40-B19 (Fab, V domains shown)
VH: EVQLVESGGGLVKPGGSLRLSCAASGFTFSSYSMNWVRQAPGKGLEWVSSISSSSRYIYYADSVKGRFTISRDNAKNSLYLQMNSLRAEDTAVYYCARQNEDVAFGIWGQGTMVTVSS
VL: B1 VL
notes: Fab from the phage library; variable regions identical to those of OX40 clone B19
B2: the binding result in test [1] is “binds”.

B3: anti-PD-L1 antibody clone 6 (antibody, human IgG4 S228P, lambda, V domains shown)
VH: QVQLVQSGAEVKKPGSSVKVSCKASGGTFRRYSISWVRQAPGQGLEWMGGIIPVFGAAKYAQKFQGRVTITADEFTSTAYMELSSLTSEDTAVYYCALSGDSDAFDIWGQGTMVTVSS
VL: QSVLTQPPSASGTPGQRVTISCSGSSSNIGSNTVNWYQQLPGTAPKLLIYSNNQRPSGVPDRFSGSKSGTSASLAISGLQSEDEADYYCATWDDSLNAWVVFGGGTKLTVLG
notes: also called PD-L1 clone 6; PD-L1-Clone 6
Turning to B3, the binding result (in test [2]; in the test with human PD-L1) was “binds” each time.

B4: OM-PD-L1-6 (Fab, V domains shown)
VH: B3 VH
VL: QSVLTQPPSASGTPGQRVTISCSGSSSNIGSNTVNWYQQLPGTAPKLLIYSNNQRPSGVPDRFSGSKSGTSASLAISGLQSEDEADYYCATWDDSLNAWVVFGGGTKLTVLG
notes: Fab from the phage library
For the molecule B4, the binding result in test [3] is on record as “binds”.

B5: OM-OX40-A4 (Fab, V domains shown)
VH: QVQLVESGGGLVQPGGSLRLSCAASGFTFSSYEMNWVRQAPGKGLEWVSYISSSGSTIYYADSVKGRFTISRDNAKNSLYLQMNSLRAEDTAVYYCARGGVGDAFDIWGQGTMVTVSS
VL: QSALTQPPSASGSPGQSVTISCTGTSSDVGGYNYVSWYQQHPGKAPKLMIYEVSQRPSGVPDRFSGSKSGNTASLTVSGLQAEDEADYYCSSYAGSNNLGVFGGGTKLTVSS
notes: Fab from the phage library
In the case of B5, the binding result in test [1] is given as “binds”.
